For 6 molecules, EC50 results are on record in patent US20250109178A1 (published 2025).

The EC50 is the concentration giving half of the maximal effect. A low value points to an effect from little substance.

Positions count from the first letter of the chain named. Where two headings read alike, the source gives them in different places.

Some targets named below: eNKG2D14 L|Y; eNKG2D2 S|Y; eNKG2D3 T|Y; eNKG2D4 V|Y.
What all share (test): ELISA
(An ELISA detects its analyte on a solid surface through an enzyme-linked reagent.)

For assay [1], the target named is T1, Fc-NKG2D.wt (natural human NKG2D ectodomain fused to the C-terminus of human IgG1 Fc).
The target of assay [2] is T1, Fc-NKG2D.wt (natural human NKG2D …). This is another data set of the same source.
Assay [3] shares this target. The source holds these as a separate data set.

B1: rituximab-ULBP2.AA MicAbody (bispecific antibody)
heavy: not shown
light: QIVLSQSPAILSASPGEKVTMTCRASSSVSYIHWFQQKPGSSPKPWIYATSNLASGVPVRFSGSGSGTSYSLTISRVEAEDAATYYCQQWTSNPPTFGGGTKLEIKTVAAPSVFIFPPSDEQLKSGTASVVCLLNNFYPREAKVQWKVDNALQSGNSQESVTEQDSKDSTYSLSSTLTLSKADYEKHKVYACEVTHQGLSSPVTKSFNRGECAPTSSSGGGGSEPHSLSYDITVIPKFRPGPRWCAVQGQVDEKTFLHYDCGNKTVTPVSPLGKKLNVTTAWKAQNPVLREVVDILTEQLWDIQLENYTPKEPLTLQARMSCEQKAEGHSSGSWQFSFDGQIFLLFDSEKRMWTTVHPGARKMKEKWENDKVVATMFWSWSMGDCIGWLEDFLMGMDSTLEPS
Turning to B1, a half-maximal effect in assay [1] (EC50) was put at 655 nM.

B2: rituximab-ULBP2.C MicAbody (bispecific antibody)
heavy: not shown
light: B1 light with M376I, F377L, S379Q, W380T
In assay [1], B2 returned an EC50 of 130 nM. This EC50 is about 5-fold lower than that of the molecule before.

B3: rituximab-ULBP2.AB MicAbody (bispecific antibody)
heavy: not shown
light: B1 light with M376L, F377M, S379Q
With B3, the EC50 in assay [1] worked out at 389 nM. This EC50 lies about 3-fold higher than the previous one.

B4: rituximab-ULBP2.S3 MicAbody (bispecific antibody)
heavy: not shown
light: QIVLSQSPAILSASPGEKVTMTCRASSSVSYIHWFQQKPGSSPKPWIYATSNLASGVPVRFSGSGSGTSYSLTISRVEAEDAATYYCQQWTSNPPTFGGGTKLEIKRTVAAPSVFIFPPSDEQLKSGTASVVCLLNNFYPREAKVQWKVDNALQSGNSQESVTEQDSKDSTYSLSSTLTLSKADYEKHKVYACEVTHQGLSSPVTKSFNRGECAPTSSSGGGGSEPHSLSYDITVIPKFRPGPRWCAVQGQVDEKTFLHYDCGNKTVTPVSPLGKKLNVTTAWKAQNPVLREVVDILTEQLWDIQLENYTPKEPLTLQARMSCEQKAEGHSSGSWQFSFDGQIFLLFDSEKRMWTTVHPGARKMKEKWENDKVVATKLYLWSMGDCIGWLEDFLMGMDSTLEPS
B4 came in with an EC50 in assay [2] of 52.7 nM. This counts as double-digit nanomolar.

B5: ULBP2.wt (bispecific antibody)
heavy: not shown
light: B4 light with W302R, T376M, K377S, L378F, Y379H, L380Y, W381F
For the molecule B5, the EC50 with eNKG2D14 L|Y is 87.6 nM; with eNKG2D2 S|Y it was 34.8 nM; with eNKG2D3 T|Y, 31.1 nM; in the assay with eNKG2D4 V|Y it was 35.8 nM.

B6: ULBP2.wt rituximab-MicAbody (bispecific antibody)
heavy: not shown
light: B4 light with W302R, T376M, K377S, L378F, Y379H, L380Y, W381F
Take B6: the EC50 in assay [2] was 1.02 nM; in assay [3], 1.41 nM.
